B1: Pistol ribozyme (parent)
chain: GGGUCGUUGUUCCAUAAUCGCGUGGAUAUGGCACGCAAGUUUCUACCGGGCACCGUAAAUGUCCGACUGGAGCCGUUCGGGCGGCUAUAAACAGACCUCAGGCCCGAAGCGUGGCGGCACCUGCCGCCGGUGGUAAAAAAGAUCGGAAGAGCACACGUCU

Variants of: B1
Test: aptazyme ON/OFF ratio, guanine; higher = stronger switching; co-transcriptional cleavage with and without guanine

Row | Variant | aptazyme ON/OFF ratio
1 | U7A G9A U10A U11C C12A C13A | 1.18
2 | U7A G9A U10A U11C C12A C13U | 1.1
3 | U7A G9A U10C U11A C13A | 1.15
4 | U7A G9A U10C U11A C13U | 1.19
5 | U7A G9A U10C U11A C13G | 1.12
6 | U7A G9C U10A U11C C13A | 1.01
7 | U7A G9A U10G U11C C12G C13U | 1.1
8 | U7A G9A U10G U11C C12G C13G | 1.18
9 | U7A G9A U10G U11C C12G C13A | 1.27
10 | U7A G9A U11C C12A C13A | 1.17
11 | U7A G9A U11C C12A C13G | 1.14
12 | U7A G9A U11C C12A C13U | 1.16
13 | U7A G9A U10C U11A | 1.27
14 | U7A G9A U10C U11G | 1.31
15 | U7A G9A U10C U11C | 1.01
16 | U7A G9A U10C C12U | 1.26
17 | U7A G9A U10C C12A | 1.43
18 | U7A G9A U10C C12G | 1.34
19 | U7A G9A C12U C13A | 1.04
20 | U7A G9A C12U C13U | 1.21
21 | U7A G9A C12U C13G | 1.17
22 | U7A G9A U11A C12G C13A | 1.19
23 | U7A G9A U11A C12G C13U | 1.28
24 | U7A G9A U11A C12G C13G | 1.16

Row | Variant | aptazyme ON/OFF ratio
25 | U7A G9A U10G C12A C13U | 1.34
26 | U7A G9A U10G C12A C13G | 1.15
27 | U7A G9A U10G C12A C13A | 1.17
28 | U7A G9C U10A C12U C13A | 1.14
29 | U7A G9C U10A C12U C13U | 1.12
30 | U7A G9C U10A C12U C13G | 1.11
31 | U7A G9A U10G C12G | 1.21
32 | U7A G9A U10G C12U | 1.41
33 | U7A G9A U10G C12A | 1.13
34 | U7A G9A U10A C12G C13G | 1.3
35 | U7A G9A U10A C12G C13A | 1.25
36 | U7A G9A U10A C12G C13U | 1.41
37 | U7A G9C U10A | 1.38
38 | U7A G9C U10A U11C C12G C13U | 1.17
39 | U7A G9C U10A U11C C12G C13A | 1.08
40 | U7A G9C U10A U11C C12G C13G | 1.12
41 | U7A G9A U10G U11A C12A C13A | 1.11
42 | U7A G9A U10G U11A C12A C13U | 1.21
43 | U7A G9A U10G U11A C12A C13G | 1.15
44 | U7A G9A U11A C12U C13A | 1.24
45 | U7A G9A U11A C12U C13U | 1.42
46 | U7A G9A U11A C12U C13G | 1.22
47 | U7A G9A U10A C12A C13U | 1.29
48 | U7A G9A U10A C12A C13G | 1.07

Row | Variant | aptazyme ON/OFF ratio
49 | U7A G9A U10A C12A C13A | 1.1
50 | U7A G9C U10A C12G C13U | 1.17
51 | U7A G9C U10A C12G C13A | 1.13
52 | U7A G9C U10A C12G C13G | 1.14
53 | U7A G9A U10G U11C C12A C13A | 1.16
54 | U7A G9A U10G U11C C12A C13U | 1.11
55 | U7A G9A U10G U11C C12A C13G | 1.14
56 | U7A G9A U11A C13U | 1.06
57 | U7A G9A U11A C13A | 1.17
58 | U7A G9A U11A C13G | 1.11
59 | U7A G9A U10A U11A C12A C13A | 1.41
60 | U7A G9A U10A U11A C12A C13U | 1.32
61 | U7A G9A U10A U11A C12A C13G | 1.13
62 | U7A G9C U10A U11A C12G C13A | 1.04
63 | U7A G9C U10A U11A C12G C13G | 1.1
64 | U7A G9C U10A U11A C12G C13U | 1.1
65 | U7A G9A U10A C12A | 1.3
66 | U7A G9A U10A C12U | 1.21
67 | U7A G9A U10A C12G | 1.21
68 | U7A G9A U10A U11A | 1.34
69 | U7A G9A U10A U11C | 1.07
70 | U7A G9A U10A U11G | 1.3
71 | U7A G9A U10C U11C C12A C13G | 1.08
72 | U7A G9A U10C U11C C12A C13U | 1.12

Row | Variant | aptazyme ON/OFF ratio
73 | U7A G9A U10C U11C C12A C13A | 1.06
74 | U7A G9C U10A U11C | 1.04
75 | U7A G9C U10A U11A | 1.07
76 | U7A G9A U10C U11C C13G | 1.03
77 | U7A G9A U10C U11C C13U | 1.02
78 | U7A G9A U10C U11C C13A | 0.975
79 | U7A G9A U10A C13U | 1.29
80 | U7A G9A U10A C13A | 1.26
81 | U7A G9A U10A C13G | 1.09
82 | U7A G9C U10A C12A | 1.11
83 | U7A G9C U10A C12U | 1.14
84 | U7A G9C U10A C12G | 1.13
85 | U7A G9A U10A U11C C13U | 1.06
86 | U7A G9A U10A U11C C13G | 1.1
87 | U7A G9A U10A U11C C13A | 1.02
88 | U7A G9A U10A U11A C13A | 1.15
89 | U7A G9A U10A U11A C13G | 1.08
90 | U7A G9A U10A U11A C13U | 1.21
91 | U7A G9C | 1.25
92 | U7A G9A | 1.83
93 | U7A G9A U10C U11A C12U C13A | 1.2
94 | U7A G9A U10C U11A C12U C13U | 1.22
95 | U7A G9A U10C U11A C12U C13G | 1.23
96 | U7A G9C U10A U11A C13A | 1.11

Row | Variant | aptazyme ON/OFF ratio
97 | U7A G9C U10A U11A C13U | 1.1
98 | U7A G9C U10A U11A C13G | 1.03
99 | U7A G9A U10C U11C C12G C13G | 1.09
100 | U7A G9A U10C U11C C12G C13U | 1.04
101 | U7A G9A U10C U11C C12G C13A | 1.07
102 | U7A G9A C13U | 1.32
103 | U7A G9A C13A | 1.24
104 | U7A G9A C13G | 1.06
105 | U7A C12G C13U | 1.27
106 | U7A C12G C13A | 1.38
107 | U7A C12G C13G | 1.26
108 | U7A G9A U10C U11G C12A | 1.04
109 | U7A G9A U10C U11G C12U | 1.29
110 | U7A G9A U10C U11G C12G | 1.3
111 | U7A G9A U10G U11G C12A C13A | 1.2
112 | U7A G9A U10G U11G C12A C13U | 1.33
113 | U7A G9A U10G U11G C12A C13G | 1.29
114 | U7A G9A U10C U11A C12G C13A | 1.19
115 | U7A G9A U10C U11A C12G C13U | 1.16
116 | U7A G9A U10C U11A C12G C13G | 1.32
117 | U7A C12A C13U | 1.22
118 | U7A C12A C13G | 1.2
119 | U7A C12A C13A | 1.4
120 | U7A G9A C12A C13G | 1.13

Row | Variant | aptazyme ON/OFF ratio
121 | U7A G9A C12A C13A | 1.13
122 | U7A G9A C12A C13U | 1.37
123 | U7A G9A U10C U11G C12A C13U | 1.1
124 | U7A G9A U10C U11G C12A C13G | 1.24
125 | U7A G9A U10C U11G C12A C13A | 1.18
126 | U7A G9A U10C U11A C12A C13U | 1.19
127 | U7A G9A U10C U11A C12A C13G | 1.05
128 | U7A G9A U10C U11A C12A C13A | 1.2
129 | U7A G9A U10G C12G C13G | 1.11
130 | U7A G9A U10G C12G C13U | 1.18
131 | U7A G9A U10G C12G C13A | 1.21
132 | U7A G9C C12A | 1.06
133 | U7A G9C C12G | 1.08
134 | U7A G9C C12U | 1.1
135 | U7A G9A U10A U11C C12A | 1.16
136 | U7A G9A U10A U11C C12U | 1.1
137 | U7A G9A U10A U11C C12G | 1.19
138 | U7A G9A U10A U11C C12U C13A | 1.13
139 | U7A G9A U10A U11C C12U C13U | 1.15
140 | U7A G9A U10A U11C C12U C13G | 1.18
141 | U7A G9A U10G C13G | 1.17
142 | U7A G9A U10G C13U | 1.28
143 | U7A G9A U10G C13A | 1.29
144 | U7A G9A U10G U11C | 1.06

Row | Variant | aptazyme ON/OFF ratio
145 | U7A G9A U10G U11A | 1.06
146 | U7A G9A U10G U11G | 1.08
147 | U7A G9A U10A U11G C12G C13A | 1.32
148 | U7A G9A U10A U11G C12G C13G | 1.44
149 | U7A G9A U10A U11G C12G C13U | 1.25
150 | U7A G9A U10C U11G C13U | 1.25
151 | U7A G9A U10C U11G C13G | 1.19
152 | U7A G9A U10C U11G C13A | 1.22
153 | U7A G9A U10A C12U C13A | 1.1
154 | U7A G9A U10A C12U C13U | 1.2
155 | U7A G9A U10A C12U C13G | 1.11
156 | U7A G9A U11G C12A C13A | 1.1
157 | U7A G9A U11G C12A C13G | 1.28
158 | U7A G9A U11G C12A C13U | 1.28
159 | U7A G9A U10A U11A C12U C13A | 1.19
160 | U7A G9A U10A U11A C12U C13G | 1.32
161 | U7A G9A U10A U11A C12U C13U | 1.39
162 | U7A G9A U11C C12U C13A | 1.1
163 | U7A G9A U11C C12U C13G | 1.27
164 | U7A G9A U11C C12U C13U | 1.22
165 | U7A G9A U10A U11G C13G | 1.11
166 | U7A G9A U10A U11G C13U | 1.12
167 | U7A G9A U10A U11G C13A | 1.29
